Experimental data from US20090304651A1 (published 2009).
Positions count from the first letter of the chain named. Names may count otherwise.

B1: IGF2R domain 11 Q1569A (amino acids 1511-1650, C-terminal His6 tag, from Pichia pastoris) (receptor)
chain: NEHDDCQVTNPSTGHLFDLSSLSGRAGFTAAYSEKGLVYMSICGENENCPPGVGACFGATRISVGKANKRLRYVDQVLQLVYKDGSPCPSKSGLSYKSVISFVCRPEAGPTNRPMLISLDKQTCTLFFSWHTPLACEQATHHHHHH
B2: IGF2R domain 11 K1545A (amino acids 1511-1650, C-terminal His6 tag, from Pichia pastoris) (receptor)
chain: B1 chain with K35A, A59Q
B3: IGF2R domain 11 S1543A (amino acids 1511-1650, C-terminal His6 tag, from Pichia pastoris) (receptor)
chain: B1 chain with S33A, A59Q
B4: IGF2R domain 11 Y1542A (amino acids 1511-1650, C-terminal His6 tag, from Pichia pastoris) (receptor)
chain: B1 chain with Y32A, A59Q
B5: IGF2R domain 11 T1570A (amino acids 1511-1650, C-terminal His6 tag, from Pichia pastoris) (receptor)
chain: B1 chain with A59Q, T60A
B6: IGF2R domain 11 with aspartate at position 1544 (E1544D) (receptor)
chain: B1 chain with E34D, A59Q
B7: IGF2R domain 11 with glutamine at position 1544 (E1544Q) (receptor)
chain: B1 chain with E34Q, A59Q
B8: IGF2R domain 11 with tryptophan at position 1544 (E1544W) (receptor)
chain: B1 chain with E34W, A59Q
B9: IGF2R domain 11 with proline at position 1544 (E1544P) (receptor)
chain: B1 chain with E34P, A59Q
B10: IGF2R domain 11 with phenylalanine at position 1544 (E1544F) (receptor)
chain: B1 chain with E34F, A59Q
B11: IGF2R domain 11 with asparagine at position 1544 (E1544N) (receptor)
chain: B1 chain with E34N, A59Q
B12: IGF2R domain 11 with arginine at position 1544 (E1544R) (receptor)
chain: B1 chain with E34R, A59Q
B13: IGF2R domain 11 with threonine at position 1544 (E1544T) (receptor)
chain: B1 chain with E34T, A59Q
B14: IGF2R domain 11 with tyrosine at position 1544 (E1544Y) (receptor)
chain: B1 chain with E34Y, A59Q
B15: IGF2R domain 11 with glycine at position 1544 (E1544G) (receptor)
chain: B1 chain with E34G, A59Q
B16: IGF2R domain 11 with methionine at position 1544 (E1544M) (receptor)
chain: B1 chain with E34M, A59Q
B17: IGF2R domain 11 with histidine at position 1544 (E1544H) (receptor)
chain: B1 chain with E34H, A59Q
B18: IGF2R domain 11 with serine at position 1544 (E1544S) (receptor)
chain: B1 chain with E34S, A59Q
B19: IGF2R domain 11 with isoleucine at position 1544 (E1544I) (receptor)
chain: B1 chain with E34I, A59Q
B20: IGF2R domain 11 with leucine at position 1544 (E1544L) (receptor)
chain: B1 chain with E34L, A59Q
B21: IGF2R domain 11 G1619R (amino acids 1511-1650, C-terminal His6 tag, from Pichia pastoris) (receptor)
chain: B1 chain with A59Q, G109R
notes: also called polymorphism G1619R

Target: T1, recombinant human IGF-II (Insulin-like Growth Factor II) (human, UniProt P01344 25-91, biotinylated (Biotinyl-IGF-II, GroPep) where immobilised in SPR, site not stated; not biotinylated in ITC and as SPR analyte)
T1 construct: also called IGF2; IGF-2
T1 sequence (P01344 25-91 limits assumed): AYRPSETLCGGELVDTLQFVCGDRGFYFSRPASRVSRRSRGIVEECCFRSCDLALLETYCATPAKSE
Assay: ITC, IGF-II titrated into domain 11
Experimental: Calorimetric measurements were performed using a VP-ITC microcalorimeter (MicroCal). All solutions were thoroughly degassed before use by stirring under vacuum. […] The sample cell contained either wild type domain 11 (7 uM) or the E1544A mutant (8 μM), also in HBS-E buffer. To correct for the heat effects of dilution and mixing, reaction heats obtained from a control experiment, in which IGF2 was injected into HBS-E, were subtracted. Calorimetric data were analysed using MicroCal ORIGIN software (version 5.0) supplied with the instrument. Thermodynamic parameters were derived by fitting the binding isotherms to a single-site binding model. Values for dissociation affinity constants (KD) were determined from duplicate experiments.
In order to validate the SPR sensorgram data, ITC was used to assess the binding affinity between domain 11 and IGF-II. The affinity of the E1544A mutant was also assessed by ITC in order to confirm whether use of a second technique agreed as to the apparent increase in affinity (FIG. 6 and Table 6). Titrations were performed using 17×15 μl injections of 40 μM IGF-II (after an initial 7.51 injection) into the reaction cell containing wild type domain 11 or the E1544A mutant. […] The two fold differences may be simply accounted for by the fidelity of both techniques.

Row | Kd [nM] | Binder
1 | 209 | B1

Target: T1, recombinant human IGF-II (Insulin-like …)
Assay: SPR, IGF-II immobilised, kinetic fit
Experimental: (§1) Kinetic analysis by Surface Plasmon Resonance (SPR) was conducted on a BIAcore 3000 biosensor (BIAcore, Uppsala, Sweden) at 25° C. in HBS-EP (10 mM HEPES, pH 7.4, 150 mM NaCl, 3 mM EDTA, 0.005% surfactant P20) at a flow rate of 40 μl/min. […] Kinetic experiments consisted of a two minute injection of analyte followed by a 100 s dissociation phase in running buffer, after which the binding surface was regenerated with a 2 minute injection of 2 M MgCl₂. A blank flow cell was used for in-line reference subtraction of changes due to differences in refractive index of running buffer versus sample and a buffer-only injection was used to subtract instrument noise and drift. Injections were performed in duplicate for each concentration and in a randomised order. Kinetic parameters were determined by global fitting of sensorgrams to a two-state (conformational change) binding model using BIAevaluation software version 4.0.1. In all cases the minor component made an insignificant contribution to the overall affinity and as such only the kinetic parameters of the major binding component were used. For each interaction the dissociation affinity constant (KD) was also calculated by fitting of the response of each concentration at equilibrium to a steady-state affinity model using BIAevaluation. In order to investigate the influence of ionic strength, kinetic experiments were conducted in HBS-EP running buffers containing the desired NaCl concentration. In each case, analyte samples were made up in the appropriate running buffer prior to injection.
(§2) Following purification, the binding of each mutant construct to IGF2 was assessed by SPR and compared to the wild type domain 11. Sensorgrams were generated using biotinylated IGF2 immobilised to the cell surface and mutant domain 11 proteins as the free analyte (FIG. 4).

Row | Kd [nM] | koff [s⁻¹] | kon [M⁻¹ s⁻¹] | Binder
2 | 287 | 0.078 | 273000 | B2
3 | 130 | 0.069 | 529000 | B1
4 | 260 | 0.096 | 369000 | B3
5 | 639 | 0.169 | 265000 | B4
6 | 954 | 0.281 | 295000 | B5

Target: T1, recombinant human IGF-II (Insulin-like …)
Assay: SPR, IGF-II immobilised, kinetic fit
Remark: another data set of the same source
Summary of the method: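 Domain 11 proteins made in Pichia pastoris and purified by His-tag were passed in duplicate, in random order, over ~50 RU of biotinylated IGF-II bound to a streptavidin Sensor Chip SA on a BIAcore 3000 (25° C, HBS-EP, 40 μl/min, 2 min injections, 100 s dissociation, 2 M MgCl₂ regeneration), at 4096–8 nM, or 16384–32 nM for three constructs. Kinetic rate constants and Kd were derived by global sensorgram fitting in BIAevaluation 4.0.1, with blank-flow-cell and buffer-injection signals subtracted first.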

Row | Kd [nM] | koff [s⁻¹] | kon [M⁻¹ s⁻¹] | Binder
7 | 230 | 0.14 | 608000 | B6
8 | 32.8 | 0.0578 | 1.76e+06 | B7
9 | 62.8 | 0.0588 | 936000 | B8
10 | 234 | 0.172 | 734000 | B9
11 | 69.4 | 0.0791 | 1.14e+06 | B10
12 | 141 | 0.122 | 867000 | B11
13 | 17.8 | 0.0407 | 2.29e+06 | B12
14 | 69.3 | 0.0692 | 998000 | B13
15 | 65 | 0.0614 | 944000 | B14
16 | 199 | 0.219 | 1.1e+06 | B15
17 | 44.6 | 0.0566 | 1.27e+06 | B16
18 | 38.3 | 0.0689 | 1.8e+06 | B17
19 | 23.3 | 0.0494 | 2.12e+06 | B18
20 | 49.9 | 0.0649 | 1.3e+06 | B19
21 | 62.4 | 0.0655 | 1.05e+06 | B20

Target: T1, recombinant human IGF-II (Insulin-like …)
Assay: SPR, IGF-II immobilised, steady state
Summary of the method: (§3)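 Domain 11 proteins were secreted from Pichia pastoris, purified by His-tag and injected in duplicate over about 50 RU of biotinylated IGF-II captured on a streptavidin Sensor Chip SA in a BIAcore 3000 at 25° C, in HBS-EP at 40 μl/min with 2 min injections. Analyte concentrations spanned 4096–8 nM, or 16384–32 nM for three constructs, and blank-flow-cell and buffer-injection signals were subtracted. Kd was obtained in BIAevaluation by fitting the equilibrium response at each concentration to a steady-state affinity model.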

Row | Kd [nM] | Binder
22 | 213 | B6
23 | 26.7 | B7
24 | 53.2 | B8
25 | 211 | B9
26 | 56.4 | B10
27 | 118 | B11
28 | 14.1 | B12
29 | 60 | B13
30 | 57.4 | B14
31 | 180 | B15
32 | 37.6 | B16
33 | 33.7 | B17
34 | 19.7 | B18
35 | 42.5 | B19
36 | 51.1 | B20

Target: T1, recombinant human IGF-II (Insulin-like …)
Assay: SPR, steady-state KD relative to wild type
Experimental: […]. Values are the mean±S.E.M. of three separate experiments.
as §1
Following purification, the binding of each mutant construct to IGF2 was assessed by SPR and compared to the wild type domain 11.

Row | Relative Affinity | Binder
37 | 0.9 fold (wild type = 1.00) | B21
38 | 0.36 fold (wild type = 1.00) | B2
39 | 0.8 fold (wild type = 1.00) | B1
40 | 0.39 fold (wild type = 1.00) | B3
41 | 0.16 fold (wild type = 1.00) | B4
42 | 0.11 fold (wild type = 1.00) | B5

Target: T1, recombinant human IGF-II (Insulin-like …)
Assay: SPR (Biacore)

Row | Kd [nM] | Binder
43 | 130 | B1

Target: T1, recombinant human IGF-II (Insulin-like …)
Assay: SPR, IGF-II immobilised, steady state
Remark: another data set of the same source
Experimental: as §1, §2

Row | Kd [nM] | Binder
44 | 289 | B2
45 | 130 | B1
46 | 262 | B3
47 | 633 | B4
48 | 930 | B5

Target: T1, recombinant human IGF-II (Insulin-like …)
Assay: SPR, steady-state KD relative to wild type
Remark: another data set of the same source
Summary of the method: as §3

Row | Relative Affinity | Binder
49 | 0.48 fold (wild type = 1.00) | B6
50 | 3.87 fold (wild type = 1.00) | B7
51 | 1.94 fold (wild type = 1.00) | B8
52 | 0.49 fold (wild type = 1.00) | B9
53 | 1.83 fold (wild type = 1.00) | B10
54 | 0.88 fold (wild type = 1.00) | B11
55 | 7.33 fold (wild type = 1.00) | B12
56 | 1.72 fold (wild type = 1.00) | B13
57 | 1.8 fold (wild type = 1.00) | B14
58 | 0.57 fold (wild type = 1.00) | B15
59 | 2.75 fold (wild type = 1.00) | B16
60 | 3.07 fold (wild type = 1.00) | B17
61 | 5.24 fold (wild type = 1.00) | B18
62 | 2.43 fold (wild type = 1.00) | B19
63 | 2.02 fold (wild type = 1.00) | B20
